In patent US20220396632A1 (VERSEAU THERAPEUTICS, published 2022):
Non-standard residues stand in square brackets, D forms with d. No end group written: not given here. *: point of attachment. Biotin = O=C1N[C@H]2[C@H](CS[C@H]2CCCCC(=O)*)N1; sY = N[C@@H](Cc1ccc(OS(=O)(=O)O)cc1)C(=O)O

What was measured:
[1] = target: T1, Biotin Y46,48,51(SO3) PSGL-1(42-62) peptide (human, sulfotyrosine at Y46, Y48 and Y51; C-terminal Lys-biotin); assay: ELISA, immobilized biotin peptide
T1 construct: also called fully sulfated N-terminal PSGL-1 peptide
T1 peptide: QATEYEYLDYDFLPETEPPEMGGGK
Protocol: (§1) A typical ELISA was performed by coating high binding half-well plates (Corning Cat. #3690) with 3 ug/mL/25 ul per well of biotinylated N-terminal PSGL-1 peptides, which incorporated residues 42 to 62 of the protein, in PBS, pH 7.4, overnight at 4° C. The peptide was unmodified or contained sulfated tyrosine at all 3 tyrosine positions (46, 48, and 51) or at one position (tyr51) (Table 7).
(§2) PSGL-1 protein or peptide served as a positive control. […] […] […] For each antibody, duplicate values were averaged and average assay background was subtracted.

[2] = target: T2, Scrambled Y42,52,63(SO3) PSGL-1(42-62) biotin peptide (sulfotyrosine at peptide positions 1, 11 and 22; C-terminal Lys-biotin); assay: ELISA, immobilized biotin peptide
T2 peptide: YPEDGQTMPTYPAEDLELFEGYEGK
Protocol: as §1, §2

[3] = target: T3, Biotin PSGL-1(42-62) peptide, unmodified (human, C-terminal Lys-biotin); assay: ELISA, immobilized biotin peptide
T3 construct: Residues 42-62 followed by GGGK-biotin; also called WT; wild-type
T3 peptide: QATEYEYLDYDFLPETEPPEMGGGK
Protocol: as §1, §2

[4] = target: T4, Human fibrinogen protein (ThermoFisher, RP-43142) (human, UniProt P02671 20-629; P02675 31-491; P02679 27-453, limits assumed, natural sulfotyrosines); assay: ELISA, 50 nM mAb
T4 construct: mature; Native dimer with 3 pairs of non-identical chains; also called gamma-fibrinogen; γ fibrinogen protein
T4 sequence (looked up) 1: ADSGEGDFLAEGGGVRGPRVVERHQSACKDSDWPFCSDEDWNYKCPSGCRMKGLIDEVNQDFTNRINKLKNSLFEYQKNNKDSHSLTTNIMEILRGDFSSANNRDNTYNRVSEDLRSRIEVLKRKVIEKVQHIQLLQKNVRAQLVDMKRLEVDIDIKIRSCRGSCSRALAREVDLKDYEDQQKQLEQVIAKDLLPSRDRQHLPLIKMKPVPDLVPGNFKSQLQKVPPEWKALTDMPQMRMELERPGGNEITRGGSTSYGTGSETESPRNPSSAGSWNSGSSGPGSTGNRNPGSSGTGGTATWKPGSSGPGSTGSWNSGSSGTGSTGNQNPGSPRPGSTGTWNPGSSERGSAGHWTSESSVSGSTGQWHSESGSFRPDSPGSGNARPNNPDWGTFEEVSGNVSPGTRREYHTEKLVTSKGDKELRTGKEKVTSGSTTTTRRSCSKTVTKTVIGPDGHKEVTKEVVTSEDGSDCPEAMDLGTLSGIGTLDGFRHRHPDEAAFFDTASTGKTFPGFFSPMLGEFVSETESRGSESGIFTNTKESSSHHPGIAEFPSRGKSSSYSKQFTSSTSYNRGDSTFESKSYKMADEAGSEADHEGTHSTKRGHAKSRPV
T4 sequence (looked up) 2: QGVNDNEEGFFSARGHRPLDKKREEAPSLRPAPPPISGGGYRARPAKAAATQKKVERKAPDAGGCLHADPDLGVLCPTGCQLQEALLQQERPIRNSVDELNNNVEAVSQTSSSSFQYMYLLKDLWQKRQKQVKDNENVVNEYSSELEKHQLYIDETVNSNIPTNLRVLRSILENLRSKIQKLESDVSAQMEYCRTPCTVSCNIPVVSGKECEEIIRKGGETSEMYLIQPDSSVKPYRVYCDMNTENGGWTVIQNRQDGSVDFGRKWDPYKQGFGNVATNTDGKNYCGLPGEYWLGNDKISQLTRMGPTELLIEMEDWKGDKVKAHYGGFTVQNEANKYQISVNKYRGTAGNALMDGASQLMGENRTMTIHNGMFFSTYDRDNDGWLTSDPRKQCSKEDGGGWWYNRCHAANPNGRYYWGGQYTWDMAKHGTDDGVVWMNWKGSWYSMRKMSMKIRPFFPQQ
T4 sequence (looked up) 3: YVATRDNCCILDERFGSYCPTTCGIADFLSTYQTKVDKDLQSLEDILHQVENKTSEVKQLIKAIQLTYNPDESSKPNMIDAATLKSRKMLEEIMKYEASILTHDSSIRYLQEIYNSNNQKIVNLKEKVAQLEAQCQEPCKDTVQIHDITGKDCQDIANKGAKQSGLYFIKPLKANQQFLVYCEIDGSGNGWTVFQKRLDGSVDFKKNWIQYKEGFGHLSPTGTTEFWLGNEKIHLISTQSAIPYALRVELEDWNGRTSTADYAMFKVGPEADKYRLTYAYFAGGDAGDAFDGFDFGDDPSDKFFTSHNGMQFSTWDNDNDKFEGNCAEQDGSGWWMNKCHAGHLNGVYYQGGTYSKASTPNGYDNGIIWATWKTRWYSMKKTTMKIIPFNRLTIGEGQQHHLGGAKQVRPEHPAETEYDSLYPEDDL
Protocol: (§3) Recombinant PSGL-1-hFc1 chimera protein consisting of PSGL-1's extracellular domain (ECD) served as a positive control. […] Primary antibody was added (25 ul per well) in duplicate at 50 nM in assay buffer (blocking buffer containing 0.05% Tween®20) into test and control (just blocked) wells and the plate incubated for 45 min at 37° C.

[5] = target: T5, Human complement C4 protein (Millipore Sigma, Cat. 204886) (human, UniProt P0C0L4 20-675; P0C0L4 680-1446; P0C0L4 1454-1744, limits assumed, natural sulfotyrosines); assay: ELISA, 50 nM mAb
T5 construct: mature
Protocol: as §3

[6] = target: T6, SulfoTyr C4 peptide (not fully specified; Y4, Y7 and Y9 sulfated (SO3); C-terminal biotin); assay: ELISA, 50 nM mAb
T6 construct: also called C4 alpha chain peptide; human sulfotyrosinylated C4 peptide
T6 peptide: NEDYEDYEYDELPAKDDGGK
Protocol: as §3

[7] = target: T7, SulfoCCK biotin peptide (human); assay: ELISA, 50 nM mAb
T7 construct: also called sulfotyrosine CCK peptide
T7 peptide: SHRISDRD[sY]MGWMDFGGK(Biotin)
Protocol: as §3

[8] = target: T8, Sulfotyr fibrinogen γ peptide (not fully specified; Y8 and Y12 sulfated (SO3); C-terminal biotin); assay: ELISA, 50 nM mAb
T8 construct: also called Fibrinogen gamma peptide; human sulfotyrosinylated fibrinogen peptide
T8 peptide: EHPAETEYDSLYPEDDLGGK
Protocol: as §3

[9] = target: T9, Sulfotyrosine CCR2b biotin peptide (human); assay: ELISA, 50 nM mAb
T9 construct: also called CCR2b peptide
T9 peptide: TTFFD[sY]D[sY]GAPSHGGK(Biotin)
Protocol: as §3

[10] = target: T10, Cynomolgus PSGL-1(ECD)-hFc1 (cynomolgus macaque); assay: ELISA, 20 nM mAb on plate cyno PSGL-1(ECD)-Fc
T10 construct: also called Cyno PSGL1-Fc; Cyno PSGL-1(ECD)-Fc
Protocol: Antibody binding to plate-immobilized cyno PSGL-1(ECD) was determined either at one concentration (20 nM) or by generating full antibody binding curves (0.003-200 nM). A typical ELISA was performed by overnight coating at 4° C. with 3 ug/mL/25 ul per well of recombinant cyno PSGL-1(ECD) protein in PBS, pH 7.4, in high binding half-well plates (Corning Cat. #3690). […] Anti-PSGL-1 IgG in assay buffer (blocking buffer containing 0.05% tween 20) was added into test and control wells (20 nM/25 ul/well) and the plate incubated for 45 min at 37° C. […] The plate was incubated for 45 min at 37° C., and mAb bound to plate-immobilized target determined at A450 nm using HRP substrate (3,3′,5,5′-tetramethylbenzidine (TMB)). For each antibody, duplicate values were averaged and assay background subtracted.

[11] = target: T11, Recombinant human PSGL-1(ECD)-hFc1 (R&D Systems, Cat. 3345-PS) (human, UniProt Q14242 42-305); assay: ELISA, 50 nM mAb
T11 construct: Bought; Gln42-Val295 counted on AAC50061; also called PSGL-1-Fc; PSGL-1-hFc1 chimera; not shown: human IgG1 Fc, Pro100-Lys330
T11 sequence: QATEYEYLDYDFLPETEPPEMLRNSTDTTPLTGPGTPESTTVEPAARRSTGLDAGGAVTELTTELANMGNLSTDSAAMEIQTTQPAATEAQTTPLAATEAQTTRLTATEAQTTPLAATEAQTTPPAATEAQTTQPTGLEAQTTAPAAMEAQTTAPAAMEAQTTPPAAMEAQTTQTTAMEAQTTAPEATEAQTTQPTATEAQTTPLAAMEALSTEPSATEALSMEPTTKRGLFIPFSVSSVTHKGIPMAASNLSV
Protocol: as §3

[12] = target: T12, Sulfotyrosine D6 biotin peptide (human); assay: ELISA, 50 nM mAb
T12 construct: also called D6 peptide
T12 peptide: ENSSFY[sY][sY]D[sY]LDEVAFGGK(Biotin)
Protocol: as §3

T5 sequence (P0C0L4 20-675 limits assumed, form in doubt, chain 1 of 3): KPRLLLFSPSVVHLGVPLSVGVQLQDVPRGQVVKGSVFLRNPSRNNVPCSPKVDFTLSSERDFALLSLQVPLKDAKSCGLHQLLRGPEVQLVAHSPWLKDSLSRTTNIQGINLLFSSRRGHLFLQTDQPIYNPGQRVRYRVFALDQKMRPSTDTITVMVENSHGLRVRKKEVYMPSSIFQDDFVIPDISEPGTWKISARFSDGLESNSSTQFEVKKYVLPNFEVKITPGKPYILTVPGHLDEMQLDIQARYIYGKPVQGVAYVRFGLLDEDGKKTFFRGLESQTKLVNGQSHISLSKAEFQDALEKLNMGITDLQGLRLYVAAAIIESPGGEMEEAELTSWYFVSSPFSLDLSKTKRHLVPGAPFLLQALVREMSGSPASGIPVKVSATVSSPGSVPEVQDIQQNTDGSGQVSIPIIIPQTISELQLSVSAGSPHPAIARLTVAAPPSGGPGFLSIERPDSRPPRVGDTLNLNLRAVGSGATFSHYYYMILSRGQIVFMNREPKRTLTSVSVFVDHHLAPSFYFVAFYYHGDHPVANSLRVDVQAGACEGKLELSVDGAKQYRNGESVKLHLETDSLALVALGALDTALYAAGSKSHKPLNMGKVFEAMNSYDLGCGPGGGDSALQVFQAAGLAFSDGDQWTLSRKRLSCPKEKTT
T5 sequence (P0C0L4 680-1446 limits assumed, form in doubt, chain 2 of 3): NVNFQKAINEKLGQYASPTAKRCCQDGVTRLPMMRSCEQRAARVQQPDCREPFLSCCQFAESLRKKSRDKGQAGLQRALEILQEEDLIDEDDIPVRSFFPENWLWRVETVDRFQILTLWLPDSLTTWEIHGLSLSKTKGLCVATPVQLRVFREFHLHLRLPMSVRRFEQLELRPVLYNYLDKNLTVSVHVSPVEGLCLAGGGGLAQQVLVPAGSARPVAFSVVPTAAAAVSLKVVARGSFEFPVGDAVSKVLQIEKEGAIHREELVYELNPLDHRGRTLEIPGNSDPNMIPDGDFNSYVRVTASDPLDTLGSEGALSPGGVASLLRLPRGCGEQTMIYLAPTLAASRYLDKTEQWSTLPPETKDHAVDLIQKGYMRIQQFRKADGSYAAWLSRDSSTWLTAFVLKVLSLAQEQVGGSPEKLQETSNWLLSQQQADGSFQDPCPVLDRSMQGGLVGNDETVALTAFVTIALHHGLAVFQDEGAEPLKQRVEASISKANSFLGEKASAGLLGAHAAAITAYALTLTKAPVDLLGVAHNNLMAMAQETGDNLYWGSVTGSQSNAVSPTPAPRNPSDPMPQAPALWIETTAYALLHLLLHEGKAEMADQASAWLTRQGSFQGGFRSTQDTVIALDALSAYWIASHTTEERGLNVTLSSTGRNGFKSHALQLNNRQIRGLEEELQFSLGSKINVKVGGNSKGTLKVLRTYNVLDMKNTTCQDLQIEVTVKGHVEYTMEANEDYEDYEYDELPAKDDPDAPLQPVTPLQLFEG
T5 sequence (P0C0L4 1454-1744 limits assumed, form in doubt, chain 3 of 3): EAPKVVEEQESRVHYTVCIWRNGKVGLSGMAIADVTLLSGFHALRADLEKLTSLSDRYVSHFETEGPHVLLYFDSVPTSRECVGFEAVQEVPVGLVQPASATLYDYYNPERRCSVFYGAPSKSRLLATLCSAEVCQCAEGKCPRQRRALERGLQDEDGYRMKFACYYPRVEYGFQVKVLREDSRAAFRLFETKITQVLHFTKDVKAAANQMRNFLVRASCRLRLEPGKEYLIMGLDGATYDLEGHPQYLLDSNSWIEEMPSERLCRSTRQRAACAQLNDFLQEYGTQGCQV

Binder	A450nm, 20 nM mAb [1] [A450nm]	A450nm, 20 nM mAb [2] [A450nm]	binding result [2]	A450nm, 20 nM mAb [3] [A450nm]	binding normalized to PSGL-1 [4]	binding normalized to PSGL-1 [5]	binding normalized to PSGL-1 [6]	binding normalized to PSGL-1 [7]	binding normalized to PSGL-1 [8]	binding normalized to PSGL-1 [9]	A450nm [10] [A450 nm]	binding result [4]	A450nm [11] [A450nm]	binding normalized to PSGL-1 [12]	EC50 [1] [nM]	EC50 [3] [nM]
03B03 (antibody, IgG4, V domains shown) VH: EVQLVQSGGGLVQPGGSLRLSCAATGFTVSRNYMTWVREAPGKGLEWVAGIYKSGTTSYTESVKGRFTISRDNSKNTLYLEMSRLRAEDTAVYYCAKSTSTWGQGTQVTVSS VL: DIVMTQSPLSLPVTLGQPASISCRASQSPGYSDGNTYLNWFQQRPGQSPRRLIYKVSNRDPGVPDRFSGSGSGTDFTLKISRVEAEDVGVYYCMQATHWPSFGQGTRLEIK	2.5	0.04	no binding (tested: 20 nM)	2.21	0.27	0.94	1	0.98	1.01	0.89	0.45					
03D01 (antibody, IgG4, V domains shown) VH: EVQLVQSGGGLVQPGGSLRLSCAATGFTVSRNYMTWVREAPGKGLEWVAGIYKSGTTSYIESVKGRFTISRDNSKNTLYLEMSRLRAEDTAVYYCAKSTSTWGQGTQVTVSS VL: DVVMTQSPVSLPVTLGQPASISCRSSRNLLYSNGNTYLNWFHQRPGQSPRRLIYKVSNQDSGVPDRFSGSGSGTDFTLKISRVEAEDVGVYYCMQGTHWPTTFGQGTRLEIK	2.67			2.52	-0.2	1.07	1.13	0.94	1.17	0.94	0.71	no binding (tested: 50 nM)				
10B03 (antibody, IgG4, V domains shown) VH: EVKLLESGGDLVQPGGSLRLSCAASGLTFSNYAMSWVRQAPGKGLEWVSAISGSGDNTYYADSVKGRFTISRDNSKNTLYLQMNSLRADDTAVYFCAKRDSWGQGTLVTVSS VL: QAVLTQPPSASGTPGQRVTISCSGSTSNIGSRDVYWYQHLPGTAPKLVIYRNDQRPSGVPDRFSGSKSGTSASLAISGLRSEDDADYYCAVWDNSLRGRVFGGGTKLTVL	2.68				0.68	1.16	1.08	0.56	1.18	0.98	0.68		2.18			
01A04 (antibody, IgG4, V domains shown) VH: EVQLVQSGAEVKKPGASVKVSCKASGYTFTSYYIHWVRQAPGQGLEWMGIIRPSGGSTSYAQKFQGRVTMTRDTSTSTVYMELSSLRSEDTAMYYCARVGVGSFDYWGQGTLVTVSS VL: DIQMTQSPSTLSASVGDRVTITCRASQSVSNWLAWYQQKPGKAPKLLIYKASSLESGVPSRFSGSGSGTEFTLTISSLQPDDFATYYCQWFRTFGPGTKVDIK	2.73			2.45	0.8	0.87	0.24	0.87	0.16	0.08	1.81			0.82		
08C10 (antibody, IgG4, V domains shown) VH: not shown VL: LPVLTQPSSLSASPGASASLTCTLRSGLNVGTYRMYWYQQRPGSPPRYLLRYKSNSDKQQGSGVPSRFSGSKDASANAGILLISGLQSEDEADYYCLIWHNSAWVFGGGTKLTVL	2.57		no binding (tested: 20 nM)		0.46	1.22	1.14	1.02	1.18	1.27	0.31		2.3		0.33	~500
